Assay results as given in patent US20180120302A1.
pKd: −log10 of the molar value.

Assays:
[1] = target: T4L-L99A-A130S (UniProt P00720); experiment: BSI, global analysis, KD1 (high affinity mode), 25° C., pH 8.0
[2] = target: T4L-D70N (UniProt P00720); experiment: as above
[3] = target: T4L-D70N (UniProt P00720); experiment: BSI corrected steady-state data, 25° C., pH 8.0
[4] = target: T4L-L99A (UniProt P00720); experiment: BSI steady-state, KD1 (high affinity mode), T = 37° C. and pH = 7.2
[5] = target: T4L-L99A (UniProt P00720); experiment: Fluorescence, KD2 (low affinity mode), T = 37° C. and pH = 7.2
[6] = target: T4L-L99A-A130S (UniProt P00720); experiment: BSI, global analysis, kr1 (high affinity mode), 25° C., pH 8.0
[7] = target: T4L-D70N (UniProt P00720); experiment: as above
[8] = target: T4L-L99A (UniProt P00720); experiment: ITC, KD2 (low affinity mode), T = 37° C. and pH = 7.2
[9] = target: T4L-L99A (UniProt P00720); experiment: ITC, KD1 (high affinity mode), T = 37° C. and pH = 7.2
[10] = target: T4L-L99A-A130S (UniProt P00720); experiment: BSI, global analysis, KD2 (low affinity mode), 25° C., pH 8.0
[11] = target: T4L-D70N (UniProt P00720); experiment: as above
[12] = target: T4L-L99A-A130S (UniProt P00720); experiment: BSI, global analysis, kf2 (low affinity mode), 25° C., pH 8.0
[13] = target: T4L-D70N (UniProt P00720); experiment: as above
[14] = target: T4L-L99A-A130S (UniProt P00720); experiment: BSI, global analysis, kf1 (high affinity mode), 25° C., pH 8.0
[15] = target: T4L-D70N (UniProt P00720); experiment: as above
[16] = target: T4L-L99A-A130S (UniProt P00720); experiment: BSI, global analysis of kinetic traces
[17] = target: T4L-L99A-A130S (UniProt P00720); experiment: BSI, global analysis, row printed kr1 but read as kr2 (low affinity mode), 25° C., pH 8.0
[18] = target: T4L-D70N (UniProt P00720); experiment: as above
[19] = target: T4L-L99A (UniProt P00720); experiment: BSI steady-state, KD2 (low affinity mode), T = 37° C. and pH = 7.2
[20] = target: T4L-L99A (UniProt P00720); experiment: Fluorescence, KD1 (high affinity mode), T = 37° C. and pH = 7.2

Chain of αB-D3 (αB-crystallin with serine residues 19, 45 and 59 mutated to aspartic acids) (P02511 other isoform, or with tags, fused parts or gaps limits assumed, change not shown): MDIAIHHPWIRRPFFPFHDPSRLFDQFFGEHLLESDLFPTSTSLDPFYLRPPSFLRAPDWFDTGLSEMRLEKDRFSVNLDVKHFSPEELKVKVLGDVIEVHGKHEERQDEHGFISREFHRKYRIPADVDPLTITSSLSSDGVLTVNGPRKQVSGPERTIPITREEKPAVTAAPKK

pKd [1]: 6.88 | pKd [2]: 6.23 | reduction in the magnitude of the BSI signal relative to L99A/A130S [3]: 40% | pKd [4]: 9.00 | pKd [5]: 6.00 | koff [6]: 5.03e-06 s⁻¹ | koff [7]: 0.0152 s⁻¹ | pKd [8]: 5.61 | pKd [9]: 7.82 | pKd [10]: 4.48 | pKd [11]: 4.54 | kon [12]: 2970 M⁻¹ s⁻¹ | kon [13]: 2340 M⁻¹ s⁻¹ | kon [14]: 58500 M⁻¹ s⁻¹ | kon [15]: 25500 M⁻¹ s⁻¹ | fold increase of affinity in the high affinity mode relative to D70N [16]: 4 fold | koff [17]: 0.115 s⁻¹ | koff [18]: 0.0682 s⁻¹ | pKd [19]: 5.51 | pKd [20]: 7.70
Substance: αB-D3 (αB-crystallin with serine residues 19, 45 and 59 mutated to aspartic acids) (from UniProt P02511 1-175)
